Experimental data: PMC10959724 (2024)

B1: wildtype TBK1 (TANK-binding kinase 1), mCitrine-Protein A fusion [not stated] / TRAF family member-associated NF-kB activator (TANK), NanoLuc-tagged [not stated] (parent complex)
chain 1: MQSTSNHLWLLSDILGQGATANVFRGRHKKTGDLFAIKVFNNISFLRPVDVQMREFEVLKKLNHKNIVKLFAIEEETTTRHKVLIMEFCPCGSLYTVLEEPSNAYGLPESEFLIVLRDVVGGMNHLRENGIVHRDIKPGNIMRVIGEDGQSVYKLTDFGAARELEDDEQFVSLYGTEEYLHPDMYERAVLRKDHQKKYGATVDLWSIGVTFYHAATGSLPFRPFEGPRRNKEVMYKIITGKPSGAISGVQKAENGPIDWSGDMPVSCSLSRGLQVLLTPVLANILEADQEKCWGFDQFFAETSDILHRMVIHVFSLQQMTAHKIYIHSYNTATIFHELVYKQTKIISSNQELIYEGRRLVLEPGRLAQHFPKTTEENPIFVVSREPLNTIGLIYEKISLPKVHPRYDLDGDASMAKAITGVVCYACRIASTLLLYQELMRKGIRWLIELIKDDYNETVHKKTEVVITLDFCIRNIEKTVKVYEKLMKINLEAAELGEISDIHTKLLRLSSSQGTIETSLQDIDSRLSPGGSLADAWAHQEGTHPKDRNVEKLQVLLNCMTEIYYQFKKDKAERRLAYNEEQIHKFDKQKLYYHATKAMTHFTDECVKKYEAFLNKSEEWIRKMLHLRKQLLSLTNQCFDIEEEVSKYQEYTNELQETLPQKMFTASSGIKHTMTPIYPSSNTLVEMTLGMKKLKEEMEGVVKELAENNHILERFGSLTMDGGLRNVDCL
chain 2: MDKNIGEQLNKAYEAFRQACMDRDSAVKELQQKTENYEQRIREQQEQLSLQQTIIDKLKSQLLLVNSTQDNNYGCVPLLEDSETRKNNLTLDQPQDKVISGIAREKLPKVRRQEVSSPRKETSARSLGSPLLHERGNIEKTFWDLKEEFHKICMLAKAQKDHLSKLNIPDTATETQCSVPIQCTDKTDKQEALFKPQAKDDINRGAPSITSVTPRGLCRDEEDTSFESLSKFNVKFPPMDNDSTFLHSTPERPGILSPATSEAVCQEKFNMEFRDNPGNFVKTEETLFEIQGIDPIASAIQNLKTTDKTKPSNLVNTCIRTTLDRAACLPPGDHNALYVNSFPLLDPSDAPFPSLDSPGKAIRGPQQPIWKPFPNQDSDSVVLSGTDSELHIPRVCEFCQAVFPPSITSRGDFLRHLNSHFNGET

Variants of: B1
Test: LuTHy-BRET; live HEK293 cells; parent: 1; read off a plot

Row | ratio to parent | Variant
1 | ~0.99 | chain 1 E696K
2 | ~1 | chain 1 R47H

Variants of: B1
Test: LuTHy-BRET donor saturation assay; live HEK293 cells; read at Acceptor:Donor = 4 (highest point of the curve); parent: 0.068; read off a plot

Row | response | Variant
3 | ~0.062 | chain 1 E696K
